Test results published in patent US20250026833A1 (WUXI BIOLOGICS IRELAND, published 2025).

Molecular target: T1, hPD-L1-ECD.mFc, W315-hPro1.ECD.mFc (in house) (human, UniProt Q9NZQ7 19-238)
T1 construct: extracellular domain; also called Human PD-L1, mFc tag; not shown: C-terminal mouse Fc
Test: dual binding (bridging) ELISA: plate coated with hVEGF.his, titrated antibody, then hPD-L1-ECD.mFc at 1 ug/ml, HRP goat anti-mouse IgG

T1 sequence (Q9NZQ7 19-238): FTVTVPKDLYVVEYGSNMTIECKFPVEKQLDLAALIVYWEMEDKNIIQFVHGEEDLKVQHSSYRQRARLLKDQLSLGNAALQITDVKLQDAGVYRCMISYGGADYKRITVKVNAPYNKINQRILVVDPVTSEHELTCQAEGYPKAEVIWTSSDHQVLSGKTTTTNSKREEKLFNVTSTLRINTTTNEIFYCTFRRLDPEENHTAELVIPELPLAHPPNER

binding result: no binding (tested: 100 nM)
B1: Avastin (bevacizumab) (antibody, human IgG1, V domains shown)
VH: EVQLVESGGGLVQPGGSLRLSCAASGYTFTNYGMNWVRQAPGKGLEWVGWINTYTGEPTYAADFKRRFTFSLDTSKSTAYLQMNSLRAEDTAVYYCAKYPHYYGSSHWYFDVWGQGTLVTVSS
VL: DIQMTQSPSSLSASVGDRVTITCSASQDISNYLNWYQQKPGKAPKVLIYFTSSLHSGVPSRFSGSGSGTDFTLTISSLQPEDFATYYCQQYSTVPWTFGQGTKVEIK
notes: also called parental anti-VEGF antibody
